This is an account of results in the RNAGym collection of RNA variant scans (doi:10.1073/pnas.2313332121).

The chains are these.
B1: TPR t1 (parent)
chain: GACCAAUCUGCCCUCAGAGCUCGAGAACAUCUUCGGAUGCAGAGGAGGCAGGCUUCGGUGGCGCGAUAGCGCCAACGUCCUCAACCUCCAAUGCAUCCCACCACAUGAUGAUGCCUGAAGAGCCUUGGUUUUUUG

This data set covers variants of B1. Briefly: polymerase ribozyme fitness, log enrichment relative to wild type (log ratio); higher = more active; in vitro selection for triplet polymerase activity. The procedure, abridged: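 After PCR construction and transcription, each subunit's mutant library from a heterodimeric triplet polymerase ribozyme was annealed with a biotinylated primer, the partner subunit and triplets. Incubation was frozen, at −7 °C, and extended constructs were gel-excised, bound to streptavidin beads and amplified by RT-PCR, in one selection round done in triplicate. Fitness is the logarithm of a genotype's enrichment divided by that of the wild type, from inverse-variance-weighted replicate averages of Illumina-sequenced inputs and outputs. The base of the logarithm is 2, and genotypes needed ≥10 input reads and ≥1 read per output.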
Turning to GACCAAUCUGGCCUCAGAGCUCGAGAACAUCUUCGGAUGCAGAGGAGGCAGGCUUCGGUGGCGCGAUAGCGCCAACGUCCUCAACCUCCAAUGCAUCCCACCACAUCAUGAUGCCUGAAGAGCCUUGGUUUUUUG [C11G G107C], the “polymerase ribozyme fitness (log ratio)” value was -4.6.

As for GACCAAUCUGGCCACAGAGCUCGAGCACAUCUUCGGAUGCAGAGGAGGCAGGCUUCGGUGGCGCGAUAGCGCCAACGUCAUCAACCUCUAAUGCAUCCCACCACAUGAUGAUGCCUGAAGAGCUUUGGUUUUUUG [C11G U14A A26C C80A C89U C124U], the “polymerase ribozyme fitness (log ratio)” value was -6.54.

In the case of GACCAAUCUGGCCUCAGAGCUCGAGAACAUCGUCGGAUGCAGAGGAGGCAGGCUUCGGUGGCGCGAUAGCGCCAACGUCCUCAACCUCCAAUGCAUCCCACCACAUGAUGAUGCCUGAAGAGCCAGGGUUUUUUG [C11G U32G U125A U126G], the “polymerase ribozyme fitness (log ratio)” value is -6.54.

In the case of GACCAAUCUGGCCUCAGAGCUCGAGAACAUCAUUGGAUGCAGAGGAGGCAGGCUUCGGUGGCGCGAUAGCGCCAACGUCCUCAACCUCCAAUGCAUCCCACCACAUGAUGAUGCGUGAAGAGCCUUGGUUUUUUG [C11G U32A C34U C115G], the “polymerase ribozyme fitness (log ratio)” value was -8.31.

GACCAAUCUGGCCUCAGAGCUCGAGAACAUCUUCGGAUGCAGAGGAGGCAGGCUUCGGUGGCGCGAUAGCGCCAACGUCCUCAACCUCCAAUGCAUCCCACCACAUGAUGAUGCCUGAAGAGCCUUGGUUUUUAG [C11G U134A]: the “polymerase ribozyme fitness (log ratio)” value is 0.54.

As for GACCAAUCUGGCCUCAGAGCUCGAGAACAUCUUCGGAUGCAGAGGAGGCAGGCUUCGGUGGCGCGAUAGCGCCAACGUCCUCAACCUCCAAUGCAUCCCACCACAUGAUGAUGCCUGAAGAGCCUUGGGUUUUUG [C11G U129G], the “polymerase ribozyme fitness (log ratio)” value was -1.77.

Take GACCAAUCUGGCCUCAGAGCUCGAGAACAUCUUCGGAUGCAGAGGAGGCAGGCUUCGGUGGCGCGAUAGCGCCAACGUCCUCAACCUCCAAUGCAUCCCACCACAUGAUGAUGCCUUAAGAGCCUUUGUUUUUUG [C11G G117U G127U]: the “polymerase ribozyme fitness (log ratio)” value is -3.47.

Take GACCAAUCUGUCCUCCGAGCUCGAGAACAUCUUCGGAUGCAGAGGAGGCAGGCUUCGGUGGCACGAUAGCGCCAACGUCCUCAACCUCCAAUGCAUCCCACCACAUGAUGAUGCCUGAAGAGCCUUGGUUUUUUG [C11U A16C G63A]: the “polymerase ribozyme fitness (log ratio)” value was -3.2.

With GACCAAUCUGGCCUCAGAGCUCGAGAACAUCUGCGGAUGCAGAGGAGGCAGGCUUCGGUGGCGCGAUAGCGCCAACGUCCUCAACCUCCAAUGCGUCCCAUCACAUGAUGAUGCCUGAACAGCCUUGGUUUUUUG [C11G U33G A95G C101U G120C], the “polymerase ribozyme fitness (log ratio)” value is -5.25.

Consider GACCAAUCUGGCCUCAGAGCUCGAGAACAUCUUCGGAUGCAGAGGAGGCAGGCUUCGGUGGCGCGAUAGCGCCAACGUCCUCAACCUCCAAUGCAUCCCACCACAUGAUGAUACCUGAAGAGCCUUGGUUUUAUG [C11G G113A U133A], for which the “polymerase ribozyme fitness (log ratio)” value was -1.34.

Take GACCAAUCUGGCCUCAGAGCUCGAGAACAUCUUCGGAUGCAGAGGAGGCAGGCUUCGGUGGCGCGAUAGCGCCAACGUCCUCAACCUCCAAUGCAUCCCACCACAUGAUUAUGCCUGAAGAGCCAUGGUUUUUUG [C11G G110U U125A]: the “polymerase ribozyme fitness (log ratio)” value is -0.479.

Take GACCAAUCUGGCCUCAGAGCGCGAGAACAUCUUCGGAUGCAGAGGAGGCAGGCUUCGGUGGCGCGAUAGCGCCAACGUCCUCAACCUCCAAUACAUCCCACCACAUGAUGAUGCCUGAAGAGCCUUGGUUUUUUG [C11G U21G G93A]: the “polymerase ribozyme fitness (log ratio)” value is -2.28.

On to GACCAAUCUGGCCUCAGAGCUCGAGAACAUCUUCGGAUGCAGAGGAGGCAGGCUUCGGUGGCGCGAUAGCGCCAACGUCCUCAACCUCCAAUGCAUCCCACCACAUGAUGAUGCCUAAAGAGCCUUGGUUUUUUG [C11G G117A], for which the “polymerase ribozyme fitness (log ratio)” value is -0.219.

For the variant GACCAAUCUGGCCUCAGAGCUCGAGAACAUCUUCGGAUGCAGAGGAGGCAGGCUUCGGUGGCGCGAUAGCGCCAACGUCCUCAACCUCCAAUGCAUCCCACCACAUGAUGAUGCCUGAAGAGCCUUGGUAUUUUG [C11G U130A], the “polymerase ribozyme fitness (log ratio)” value came to 0.0419.

For the variant GACCAAUCUGGCCUCAGAGCUCGAGAACAUCUUCGGAUGCAGAGGAGGCAGGCUUCGGUGGCGCGAUAGCGCCAACGUCCUCAACCUCCAAUGCAUCCCACCACAUGAUGAUGCCUGAAGAACCUUGGUUUUUUG [C11G G122A], the “polymerase ribozyme fitness (log ratio)” value was 0.352.

GACCAAUCUGGCCUCAGAGCUCGAGAACAUCUUCGGAUGCAGAGGAGGCAGGCUUCGGAGGCGCGAUUGCGCCAACGUCCUCAACCUCCAAUGCAUCCCACCACAUGAUGAUGCCUGAAGAGCCUUGGUUUUUUG [C11G U59A A68U]: the “polymerase ribozyme fitness (log ratio)” value was -7.59.

Regarding GACCAAUCUGGCCUCAGAGCUCGAGAACAUCUUCGGAAGCAGAGUAGGCCGGCUUCGGUGGCGCGAUAGCGCCAACGUCCUCAACCUCCAAUGCAUCCCACCACAUGAUGAUGCCUGAAGAGCCUUGGUUUUUUG [C11G U38A G45U A50C], the “polymerase ribozyme fitness (log ratio)” value is -2.51.

Take GACCAAUCUGGCCUCAGAGCACGAGAACAUCUUCGGAUGCAGAGGAGGCAGGCUUCGGUGGCGCGAUAGCGCCAACAUCCUCAACCUCCAAUGCAUCCCACCACAUGAUGAUGCCUGAAGAGCCUUGGUUUUUUG [C11G U21A G77A]: the “polymerase ribozyme fitness (log ratio)” value was -0.311.

In the case of GACCAAUCUGGCCUCAGAGCUCGAGAACAUCUUCGGAUGCAGAGGAGGCAGGCUCCGGUGGGGCGAUAGCGCCAACGUCCUCUACCUCCAAUGCUUCCCACCACAUGAUGAUGCCUGAAGAGCCUUGGUUUUUUG [C11G U55C C62G A83U A95U], the “polymerase ribozyme fitness (log ratio)” value is -1.47.

As for GACCAAUCUGGCCUCAGAGCUCGAGAACAUCUUCGGAUGCAGAGGAGGCAGGCUUCGGUGGCGCGAUAGCGCCAACGUCCUCAACCUCCAAUGCAUCCCACCACAUGAGGAUGCCUGAAGAGCCUUGGUUUUUUG [C11G U109G], the “polymerase ribozyme fitness (log ratio)” value is -4.69.

Turning to GACCAAUCUGGCCUCAGAGCUCGAGAACAUCUUCGGAUGCAGAGGAGGCAGGCUUCGGUGGCGCGAUAGCGCCAACGUCCUCAACCUCCAAUGCAUCCCACCACAUGAUGAUACCUGAAGAGCCUUGGUUUUUUG [C11G G113A], the “polymerase ribozyme fitness (log ratio)” value was -0.119.
